From patent publication US20240043542A1 (published 2024)

T1: human B7-H4 on the cell surface (human, UniProt Q7Z7D3 25-282)
T1 sequence: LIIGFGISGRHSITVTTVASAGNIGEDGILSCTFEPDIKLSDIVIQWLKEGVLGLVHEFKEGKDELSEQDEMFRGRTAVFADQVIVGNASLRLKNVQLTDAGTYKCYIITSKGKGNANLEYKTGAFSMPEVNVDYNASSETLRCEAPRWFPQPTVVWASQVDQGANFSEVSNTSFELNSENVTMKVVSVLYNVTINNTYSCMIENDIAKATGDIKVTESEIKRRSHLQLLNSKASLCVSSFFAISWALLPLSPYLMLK

T2: cynomolgus monkey B7-H4 (recombinant, BLI) (cynomolgus monkey, UniProt Q7Z7D3 25-259 (human entry))
T2 construct: also called Cynomolgus B7-H4
T2 sequence: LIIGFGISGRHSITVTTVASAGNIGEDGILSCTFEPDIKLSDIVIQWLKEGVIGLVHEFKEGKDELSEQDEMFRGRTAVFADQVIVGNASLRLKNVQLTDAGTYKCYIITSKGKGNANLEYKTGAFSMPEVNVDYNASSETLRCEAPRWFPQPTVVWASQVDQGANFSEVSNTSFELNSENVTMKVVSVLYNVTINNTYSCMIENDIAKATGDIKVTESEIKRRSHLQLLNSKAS

T3: mouse B7-H4 (recombinant, BLI) (mouse, UniProt Q7TSP5 29-256, limits assumed)
T3 construct: also called murine B7-H4
T3 sequence: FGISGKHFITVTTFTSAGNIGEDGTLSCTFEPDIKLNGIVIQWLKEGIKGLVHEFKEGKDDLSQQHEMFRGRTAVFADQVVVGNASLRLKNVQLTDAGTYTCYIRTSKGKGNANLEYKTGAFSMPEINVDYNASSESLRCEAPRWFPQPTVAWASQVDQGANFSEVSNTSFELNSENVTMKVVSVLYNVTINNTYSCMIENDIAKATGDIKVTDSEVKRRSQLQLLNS

T4: cynomolgus monkey B7-H4 on the cell surface (cynomolgus monkey, UniProt Q7Z7D3 25-282 (human entry))
T4 construct: full-length, on transfected HEK293T cells
T4 chain: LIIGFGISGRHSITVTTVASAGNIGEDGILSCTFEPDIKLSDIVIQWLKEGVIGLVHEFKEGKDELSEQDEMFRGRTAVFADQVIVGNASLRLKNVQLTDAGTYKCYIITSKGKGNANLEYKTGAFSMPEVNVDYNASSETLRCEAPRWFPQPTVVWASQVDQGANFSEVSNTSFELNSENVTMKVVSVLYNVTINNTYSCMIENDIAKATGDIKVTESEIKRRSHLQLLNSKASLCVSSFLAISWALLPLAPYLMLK

T5: mouse B7-H4 on the cell surface (mouse, UniProt Q7TSP5 25-257)
T5 construct: full-length, on transfected HEK293T cells
T5 sequence: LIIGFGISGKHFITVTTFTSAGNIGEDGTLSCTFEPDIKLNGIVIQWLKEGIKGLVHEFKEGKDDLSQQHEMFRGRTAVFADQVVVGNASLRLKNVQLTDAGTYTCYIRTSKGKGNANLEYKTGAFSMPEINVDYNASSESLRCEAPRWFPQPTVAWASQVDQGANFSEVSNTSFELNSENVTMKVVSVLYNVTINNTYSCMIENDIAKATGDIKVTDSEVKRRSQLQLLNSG

T6: rat B7-H4 on the cell surface (rat, UniProt Q501W4 25-257)
T6 construct: full-length, on transfected HEK293T cells
T6 sequence: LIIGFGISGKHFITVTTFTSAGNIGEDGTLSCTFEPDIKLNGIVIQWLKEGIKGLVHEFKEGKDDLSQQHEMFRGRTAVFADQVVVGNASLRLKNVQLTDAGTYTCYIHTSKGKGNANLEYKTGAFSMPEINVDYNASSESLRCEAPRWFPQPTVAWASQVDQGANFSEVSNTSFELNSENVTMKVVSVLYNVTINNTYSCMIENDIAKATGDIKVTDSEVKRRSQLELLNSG


Columns and labels:
[1] = target: T1, human B7-H4 on the cell surface; assay: cell-based or functional assay
[2] = target: T1, human B7-H4 on the cell surface; assay: flow cytometry, SK-BR-3 cells
Description: (§1) Following incubation, cells were pelleted, washed and incubated with a secondary labeling antibody and samples were acquired on a flow cytometer. Data was analyzed using the FlowJo software and MFI was plotted vs. antibody concentration. The EC50 cell binding potency was calculated using nonlinear regression curve fit (GraphPad Prism).

[3] = target: T7, recombinant human B7-H4-huIgG1 (human); assay: BLI, antigen on Protein A tips;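 also: Anti-B7-H4 antibodies assessed for affinity toward the B7-H4 extracellular domain using biolayer interferometry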
T7 construct: also called B7-H4-extracellular domain (ECD)
Description: (§2) Binding affinities of anti-B7-H4 antibodies to B7-H4-extracellular domain (ECD) were determined by biolayer interferometry (BLI). […] Anti-B7-H4 antibodies were then evaluated for binding.

[4] = target: T2, cynomolgus monkey B7-H4 (recombinant, …); assay: BLI, antigen on Protein A tips;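 also: Anti-B7-H4 antibodies assessed for affinity toward the B7-H4 extracellular domain using biolayer interferometry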
Description: as §2

[5] = target: T3, mouse B7-H4 (recombinant, BLI); assay: BLI, antigen on Protein A tips;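 also: Anti-B7-H4 antibodies assessed for affinity toward the B7-H4 extracellular domain using biolayer interferometry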
Description: as §2

[6] = target: T4, cynomolgus monkey B7-H4 on the cell …; assay: flow cytometry, transfected 293 cells
Description: as §1

[7] = target: T5, mouse B7-H4 on the cell surface; assay: flow cytometry, transfected 293 cells
Description: as §1

[8] = target: T6, rat B7-H4 on the cell surface; assay: flow cytometry, transfected 293 cells
Description: as §1

[9] = target: T1, human B7-H4 on the cell surface; assay: flow cytometry, 100 nM, transfected HEK293T
Description: (§3) HEK293T cell lines were transfected to express full-length human, cynomolgus monkey, mouse, or rat B7-H4. In addition, the endogenous human B7-H4 expressing SK-BR-3 breast cancer cell line was used to assess the ability of the antibodies to bind B7-H4 expressed on the cell surface. 1×10⁵ parental HEK293T or transfected HEK293T cell lines were incubated with 100 nM of the B7-H4 antibodies. Following incubation, cells were pelleted, washed, and incubated with a secondary labeling antibody, and samples were acquired on a flow cytometer. Fold binding over the parental cell line (FOP) was calculated as follows: MFI transfected HKE293T cells/MFI parental HEK293T cells.

[10] = target: T4, cynomolgus monkey B7-H4 on the cell …; assay: flow cytometry, 100 nM, transfected HEK293T
Description: as §3

[11] = target: T5, mouse B7-H4 on the cell surface; assay: flow cytometry, 100 nM, transfected HEK293T
Description: as §3

T7 sequence (chain, as listed by the source limits assumed): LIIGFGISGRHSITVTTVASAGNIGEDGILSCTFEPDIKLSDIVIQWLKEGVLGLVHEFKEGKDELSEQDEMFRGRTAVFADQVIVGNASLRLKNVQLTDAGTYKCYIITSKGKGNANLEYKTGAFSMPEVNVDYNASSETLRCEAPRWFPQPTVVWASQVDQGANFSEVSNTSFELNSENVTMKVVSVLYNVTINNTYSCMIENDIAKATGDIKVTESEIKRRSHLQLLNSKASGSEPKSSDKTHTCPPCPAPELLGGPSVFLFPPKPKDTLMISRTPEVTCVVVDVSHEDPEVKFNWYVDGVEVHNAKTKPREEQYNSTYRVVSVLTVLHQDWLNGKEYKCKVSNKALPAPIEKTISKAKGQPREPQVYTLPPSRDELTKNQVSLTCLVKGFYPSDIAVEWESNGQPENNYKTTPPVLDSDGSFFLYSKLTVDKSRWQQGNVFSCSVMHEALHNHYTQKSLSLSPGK

| Binder | Donor 1 Max IFNγ [1] [pg/mL] | Donor 2 Max IFNγ [1] [pg/mL] | Donor 3 Max IFNγ [1] [pg/mL] | Donor 4 Max IFNγ [1] [pg/mL] | aAPC Assay EC50 (IFNγ production) [1] [nM] | EC50 [2] [nM] | Kd [3] [nM] | koff [3] [s⁻¹] | kon [3] [M⁻¹ s⁻¹] | Kd [4] [nM] | koff [4] [s⁻¹] | kon [4] [M⁻¹ s⁻¹] | Kd [5] [nM] | koff [5] [s⁻¹] | kon [5] [M⁻¹ s⁻¹] | EC50 [6] [nM] | EC50 [7] [nM] | EC50 [8] [nM] | FOP (fold binding over the parental cell line) [9] [fold] | FOP (fold binding over the parental cell line) [10] [fold] | also measured |
| --- | --- | --- | --- | --- | --- | --- | --- | --- | --- | --- | --- | --- | --- | --- | --- | --- | --- | --- | --- | --- | --- |
| B7-H4 antibody 20500 (antibody, human IgG1, kappa, V domains shown, human IgG1/kappa) VH: QLQLQESGPGLVKPSETLSLTCTVSGGSIKSGSHYWGWIRQPPGKGLEWIGNIYYSGSTYYNPSLRSRVTISVDTSKNQFSLKLSSVTAADTAVYYCAREGSYPNWFDPWGQGTLVTVSS VL: EIVMTQSPATLSVSPGERATLSCRASQSVSSNLAWYQQKPGQAPRLLIYGASTRATGIPARFSGSGSGTEFTLTISSLQSEDFAVYYCQQYHSFPFTFGGGTKVEIKR | 821 | 274 | 118 | 4030 | 0.84 | 1.54 | 5.97 | 0.00233 | 391000 | 5.47 | 0.00229 | 418000 | 8.25 | 0.00336 | 408000 | 3.38 | 4 | 1.14 | 182 | 630 | FOP (fold binding over the parental cell line) [11]: 478 fold |
| B7-H4 antibody 20501 (antibody, human IgG1, kappa, V domains shown, human IgG1/kappa) VH: QLQLQESGPGLVKPSETLSLTCTVSGGSIKSGSHYWGWIRQPPGKGLEWIGNIYYSGSTYYNPSLKSRVTISVDTSKNQFSLKLSSVTAADTAVYYCAREGSYPNWLDPWGQGTLVTVSS VL: EIVMTQSPATLSVSPGERATLSCRASQSVSSNLAWYQQKPGQAPRLLIYGASTRATGIPARFSGSGSGTEFTLTISSLQSEDFAVYYCQQYHSFPFTFGGGTKVEIKR | 850 | 310 | 136 | 4490 | 0.79 | 1.9 | 2.56 | 0.00251 | 980000 | 2.42 | 0.00246 | 1.02e+06 | 3.35 | 0.00375 | 1.12e+06 | 3.89 | 4.67 | 1.15 | 205 | 728 | FOP (fold binding over the parental cell line) [11]: 546 fold |
| B7-H4 antibody 20502.1 (antibody, human IgG1, kappa, V domains shown, human IgG1/kappa) VH: QLQLQESGPGLVKPSETLSLTCTVSGGSIKSGSYYWGWIRQPPGKGLEWIGNIYYSGSTYYNPSLKSRVTISVDTSKNQFSLKLSSVTAADTAVYYCAREGSYPNQFDPWGQGILVTVSS VL: EIVMTQSPATLSVSPGERATLSCRASQSVSSNLAWYQQKPGQAPRLLIYGASTRATGIPARFSGSGSGTEFTLTISSLQSEDFAVYYCQQYHSFPFTFGGGTKVEIKR | 937 | 304 | 174 | 4270 | 0.79 | 2.5 | 3.07 | 0.0015 | 487000 | 2.64 | 0.00139 | 528000 | 3.99 | 0.00207 | 520000 | 4.94 | 5.57 | 1.26 | 200 | 683 | FOP (fold binding over the parental cell line) [11]: 559 fold |
